Data on 1 molecule can be found in US20110257092A1 (INDIANA UNIVERSITY RESEARCH AND TECHNOLOGY, published 2011).

Ends that are not written are not given here.

The experiment concerns the target glucagon receptor (UniProt P47871 26-477, limits assumed). In words: cell-based or functional assay.

Sequence of glucagon receptor (P47871 26-477 limits assumed): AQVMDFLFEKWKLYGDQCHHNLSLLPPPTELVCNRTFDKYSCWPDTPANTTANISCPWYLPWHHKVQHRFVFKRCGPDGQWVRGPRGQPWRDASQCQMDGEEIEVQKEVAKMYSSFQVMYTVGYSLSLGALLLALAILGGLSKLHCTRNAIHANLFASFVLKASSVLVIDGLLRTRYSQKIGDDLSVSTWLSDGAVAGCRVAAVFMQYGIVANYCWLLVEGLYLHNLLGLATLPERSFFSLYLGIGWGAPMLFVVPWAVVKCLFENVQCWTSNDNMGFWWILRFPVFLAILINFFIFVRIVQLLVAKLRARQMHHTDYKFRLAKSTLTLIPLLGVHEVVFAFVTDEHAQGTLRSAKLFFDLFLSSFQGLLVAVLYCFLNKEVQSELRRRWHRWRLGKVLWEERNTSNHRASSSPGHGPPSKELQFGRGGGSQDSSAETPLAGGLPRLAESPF

With HSEGTFTSDYSKYLDEQAAKEFIC(PEG 20 kDa)WLMNT (not fully specified (C-terminus)) [Peptide V], the glucagon agonism was > 10 fold reduction.
